Laboratory results as given in patent publication US20230025280A1, “PH RESPONSIVE COMPOSITIONS, FORMULATIONS, AND METHODS OF IMAGING A TUMOR” (ONCONANO MEDICINE, INC, priority 2019, published 2023).
Several values for one entry are separate records, joined by “and”; a condition that tells them apart may be missing. Equal values may be shown once.

Test: Phase 1 (1a/1b) pharmacokinetics: plasma concentrations after single IV dose (validated direct fluorescence reader assay), noncompartmental analysis
Type: in vivo, human
Details: for AUC0-24 hr / AUCall / AUClast / C10 m / Cmax / T1/2 / Tmax / Plasma Conc: Phase 1b; for AUC0-24 hr / AUCall / AUClast / C10 m / Cmax / T1/2 / Tmax: 1.2 mg/kg single IV; for Plasma Conc: 1.2 mg/kg
Excerpt: Phase 1 is a single-Principal Investigator, non-randomized, open-label, single-arm, cross-sectional study to evaluate the safety, PK profile, and imaging feasibility of Compound 1 in patients with solid cancers who require surgical excision. The main purpose of this study was to investigate the safety, PK, and feasibility of Compound 1 as an intra-operative optical imaging agent to detect tumors and metastatic lymph nodes in solid cancers. The study was intended to investigate the optimal dose range of Compound 1 for an adequate TBR and CNR of fluorescence obtained intraoperatively at 24 (±8) hours post dosing and with ex vivo specimens using ICG compatible cameras and imaging devices.
Phase 1 enrolled 30 patients with solid cancers (HNSCC, breast cancer, esophageal cancer, or colorectal cancer) who have a biopsy-confirmed diagnosis of respective tumor types and are scheduled to undergo surgical resection of the tumor. The study design included a standard 3+3 design for the dose-escalation portion (Phase 1a; N=18 maximum) followed by a dose-expansion portion (Phase 1b; N=15). All patients received a single I.V. dose of Compound 1, followed by routine surgery approximately 24 hours after infusion of Compound 1.
Phase 1a was a dose-finding study performed in 5 cohorts of 3 patients each. The dose levels evaluated were […], and 1.2 mg/kg, in this sequence. Inter-cohort dose escalation took place after the last patient in the previous cohort completed the Day 10 safety assessment. Safety, PK, and imaging feasibility were evaluated in both the Phase 1a and 1b portions of the study. Patient safety is assessed during the study and for up to 10 days post-dose.
Study design: Single Compound 1 IV dose was administered as a 1-5 minute IV infusion to patients in five cohorts (0.1, 0.3, 0.5, 0.8, and 1.2 mg/kg) with three patients per cohort in Phase 1a and 15 patients at a dose of 1.2 mg/kg in Phase 1b. Patient demographic information including tumor types is presented in Table 4 and 5 for Phase 1a and Table 5 for Phase 1b. Intertek Pharmaceutical Services (San Diego, Calif.) determined Compound 1 plasma concentrations using a validated direct fluorescence reader assay. Pacific BioDevelopment (Davis, Calif.) performed the PK analysis.
Sample collection: Blood samples were collected prior to infusion and at 10 minutes and 0.5, 1, 3, 8, 24, 48, 72, and 240 hours after infusion.
Analysis: Plasma concentration versus time profiles were generated for each patient. Pharmacokinetic parameters were estimated using Phoenix WinNonlin (version 8.0). According to SOP, concentrations reported as BQL were set to 0 except for the 0.5 h sample for subject #ON1102, which was set to LLOQ/2 ([…] value used in parameter calculations) and the 24 and 48 h samples.
If the coefficient of determination for the terminal slope estimation was less than 0.8, T1/2 was not reported (NR). AUC extrapolated to infinity is not reported for any data set because in all cases the % extrapolated AUC was greater than 20% and thus the AUCinf estimate would not be reliable. The concentration at 10 minutes, the first time point measured (C10m), was also reported for each patient.
The area under the plasma concentration versus time curves from dosing to the last time point with a measurable concentration (AUClast) was estimated by the linear trapezoid method. The last three or more time points were used to estimate the elimination rate constant (λz) which was used to estimate the terminal-phase half-life (T1/2) and AUC from zero to infinity (AUCINF) from the following equations: […]

PEO90-140-b-P(DBA60-150-r-ICG0-3-r-AMA0-3) [Compound 1]
AUC0-24 hr (mean): 638 µg·h/mL | AUCall (mean): 1840 µg·h/mL | AUClast (mean): 1180 µg·h/mL | C10 m (mean): 33.2 µg/mL | Cmax (mean): 34800 ng/mL | T1/2 (mean): 46.4 h | Tmax (mean): 0.967 h | AUC0-24 hr (median): 626 µg·h/mL | AUCall (median): 1460 µg·h/mL | AUClast (median): 1110 µg·h/mL | C10 m (median): 32.1 µg/mL | Cmax (median): 34100 ng/mL | T1/2 (median): 42.6 h | Tmax (median): 1.00 h | Plasma Conc (0.170 hr, individual subject): 27.5 µg/mL and 38.6 µg/mL and 30.3 µg/mL and 31.4 µg/mL and 25.5 µg/mL and 40.0 µg/mL and 47.6 µg/mL and 32.6 µg/mL and 31.3 µg/mL and 36.5 µg/mL and 32.1 µg/mL and 35.8 µg/mL and 33.0 µg/mL and 28.0 µg/mL and 28.5 µg/mL | Plasma Conc (0.170 hr, mean): 33.2 µg/mL | Plasma Conc (0.170 hr, median): 32.1 µg/mL | Plasma Conc (0.500 hr, individual subject): 29.2 μg/mL and 35.2 μg/mL and 30.3 μg/mL and 28.5 μg/mL and 27.6 μg/mL and 40.0 μg/mL and 44.1 μg/mL and 32.0 μg/mL (2×) and 28.9 μg/mL and 34.5 μg/mL and 32.9 μg/mL and 36.4 μg/mL and 31.4 μg/mL and 29.8 μg/mL | Plasma Conc (0.500 hr, mean): 32.9 µg/mL | Plasma Conc (0.500 hr, median): 32.0 µg/mL | Plasma Conc (1.00 hr, individual subject): 25.9 μg/mL and 33.0 μg/mL and 31.3 μg/mL (2×) and 32.6 μg/mL and 23.3 μg/mL and 42.2 μg/mL (2×) and 29.9 μg/mL (2×) and 37.7 μg/mL and 34.1 μg/mL and 35.4 μg/mL and 34.3 μg/mL and 26.8 μg/mL | Plasma Conc (1.00 hr, mean): 32.7 µg/mL | Plasma Conc (1.00 hr, median): 32.6 µg/mL | Plasma Conc (3.00 hr, individual subject): 27.5 μg/mL and 34.3 μg/mL (2×) and 32.4 μg/mL and 31.3 μg/mL and 25.0 μg/mL and 40.1 μg/mL and 35.3 μg/mL and 30.3 μg/mL and 29.6 μg/mL and 31.5 μg/mL and 33.3 μg/mL and 31.2 μg/mL and 26.4 μg/mL and 25.4 μg/mL | Plasma Conc (3.00 hr, mean): 31.2 µg/mL | Plasma Conc (3.00 hr, median): 31.3 µg/mL | Plasma Conc (8.00 hr, individual subject): 21.1 μg/mL and 28.3 μg/mL and 31.3 μg/mL and 26.1 μg/mL and 23.6 μg/mL (2×) and 35.8 μg/mL and 32.6 μg/mL and 25.0 μg/mL and 33.6 μg/mL and 27.9 μg/mL and 32.4 μg/mL and 27.8 μg/mL and 30.0 μg/mL and 24.5 μg/mL | Plasma Conc (8.00 hr, mean): 28.2 µg/mL | Plasma Conc (8.00 hr, median): 27.9 µg/mL | Plasma Conc (24.0 hr, individual subject): 18.9 μg/mL and 29.8 μg/mL and 15.5 μg/mL and 20.2 μg/mL and 15.0 μg/mL and 23.9 μg/mL and 22.7 μg/mL and 19.5 μg/mL and 26.2 μg/mL and 20.3 μg/mL (2×) and 21.2 μg/mL and 18.6 μg/mL and 25.6 μg/mL and 21.0 μg/mL | Plasma Conc (24.0 hr, mean): 21.2 µg/mL | Plasma Conc (24.0 hr, median): 20.3 µg/mL | Plasma Conc (48.0 hr, individual subject): BQL (BQL (<10 μg/mL), set = 0 for PK analysis) (2×) and 19.9 μg/mL and 18.5 μg/mL and 12.6 μg/mL and 12.0 μg/mL and 16.3 μg/mL and 13.3 μg/mL and 11.8 μg/mL and 15.0 μg/mL and 12.5 μg/mL and 10.2 μg/mL and 22.0 μg/mL and 12.8 μg/mL and 12.3 μg/mL | Plasma Conc (48.0 hr, mean): 12.6 µg/mL | Plasma Conc (48.0 hr, median): 12.6 µg/mL | Plasma Conc (72.0 hr, individual subject): BQL (BQL (<10 μg/mL), set = 0 for PK analysis) (8×) and 18.7 μg/mL and 14.9 μg/mL and 10.4 μg/mL and 12.0 μg/mL and 12.8 μg/mL and 13.8 μg/mL and 17.3 μg/mL | Plasma Conc (72.0 hr, mean): 6.66 µg/mL | Plasma Conc (72.0 hr, median): 0.00 µg/mL | Plasma Conc (240 hr, individual subject): BQL (BQL (<10 μg/mL), set = 0 for PK analysis) | Plasma Conc (240 hr, mean): 0.00 µg/mL | Plasma Conc (240 hr, median): 0.00 µg/mL | C10 in relation to dose (from 0.3 through 1.2 mg/kg): appears to be dose proportional
